Reference: US20250019425A1 (ADRX, published 2025)
Changes are numbered by the printed parent chain. Read-outs that look alike come from different tables or passages of the source. One block for each binder: values may come before it.

Experiments:
[1] = target: T1, biotinylated TTR F87M L110M monomer (Avi_mTTR in vivo biotinylation construct) (human, biotin on the Avi tag (in vivo biotinylation by BirA)); test: indirect ELISA, biotinylated mTTR on Neutravidin plate, anti-mouse-HRP
T1 construct: also called Biotinyl-Monomer; biotinyl-mTTR

[2] = target: TTR F87M L110M (monomeric TTR, mTTR), untagged (human, UniProt P02766 21-147); test: sandwich ELISA, antibody coated, untagged mTTR, HRP pan-TTR polyclonal detection
[3] = target: T1, biotinylated TTR F87M L110M monomer …; test: biolayer interferometry (Octet RED), antibody on anti-mouse biosensor, biotinylated TTR monomer
[4] = target: T2, TTR S112I (dimer TTR, dTTR), untagged (human, UniProt P02766 21-147); test: sandwich ELISA (Example 11): antibody coated on the plate, untagged TTR titrated, HRP-conjugated pan-TTR polyclonal antibody for detection
[5] = target: T3, wild-type TTR (wtTTR), untagged (human, UniProt P02766 21-147); test: as above
[6] = target: T2, TTR S112I (dimer TTR, dTTR), untagged; test: as above; remark: listed apart in the source
[7] = target: T3, wild-type TTR (wtTTR), untagged; test: as above; remark: listed apart in the source
[8] = target: T1, biotinylated TTR F87M L110M monomer …; test: indirect ELISA, biotinylated mTTR on Neutravidin plate, anti-mouse-HRP; indirect ELISA; biotinylated mTTR captured on Neutravidin plate, anti-mouse-HRP detection
[9] = target: T1, biotinylated TTR F87M L110M monomer …; test: indirect ELISA, biotinyl-mTTR bound to avidin plates
[10] = target: T1, biotinylated TTR F87M L110M monomer …; test: as above; remark: listed apart in the source
[11] = target: biotinylated TTR S112I (dimer TTR) (human, UniProt P02766 21-147); test: indirect ELISA (Examples 4 and 8): biotinylated TTR on Neutravidin plate, antibody titrated, HRP-conjugated anti-species antibody
[12] = target: T2, TTR S112I (dimer TTR, dTTR), untagged; test: sandwich ELISA (Example 11): antibody coated on the plate, untagged TTR titrated, HRP-conjugated pan-TTR polyclonal antibody for detection; remark: listed apart in the source
[13] = target: T3, wild-type TTR (wtTTR), untagged; test: as above; remark: listed apart in the source

B2: murine anti-human monomer TTR antibody Ab5 (antibody, V domains shown)
VH: EVQLQQSGAELVKPGASVKLSCTASGFNIKDYYMHWVKQRTEQGLEWIGRIDPEDGETKYAPKFQGKATITADTSSNTAYLQLSSLTSEDTAVYYCALLWLRRGRGYWGQGTTLTVSS
VL: DIQMTQSPSSLSASLGERVSLTCRASQEISGYLSWLQQKPDGTIKRLIYAASTLDSGVPKRFSGSRSGSDYSLTISSLESEDFADYYCLQYASYPPTFGAGTKLELK
notes: Murine monoclonal antibody; entries are called Mouse Ab5 HC / LC but hold only the variable domains; also called mAb 5; Antibody 5
EC50 [1]: 0.2 nM | EC50 [2]: ~14.2 nM | Kd [3]: 1.31 nM | binding result [4]: no binding (tested: about 20 µM TTR) | binding result [5]: no binding (tested: about 20 µM TTR)

B4: Humanized Ab1 construct (antibody, V domains shown)
VH: QVQLVQSGAEVKKPGASVKVSCKASGYTFTSYWMHWVRQAPGQGLEWIGNIDPSDSETHYAQKFQGRATLTVDKSTSTVYMELSSLRSEDTAVYYCARGRNYWYFDVWGTGTMVTVSS
VL: DIQMTQSPSSLSASVGDRVTITCRASESVDNYGISFMNWFQQKPGKPPKLLIYAASNQGSGVPSRFSGSGSGTDFTLTISSLQPEDFATYYCQQSKEVPWTFGGGTKLEIK
notes: also called humanized antibody Ab1; humanized construct for Ab1
fold weaker than the IgG2 form of Ab1 [9]: ~10 fold | EC50 [10]: 0.55 nM | binding result [11]: no binding (tested: about 60 nM antibody)

B5: murine anti-human monomer TTR antibody Ab2 (antibody, V domains shown)
VH: EVKLEQSGGGLVQPGGSMKLSCVASGFTFSNYWMNWVRQSPEKGLEWVAQIRLKSDNYATHYAESVKGRFTISRDDSKSSVYLQMNNLRAEDTGIYYCTGVFTYWGQGTLVTVSA
VL: NIVLTQSPASLAVSLGQRATISCRTSESVDSYGNSFMHWYQQKPGQPPKLLIYLASNLESGVPARFSGSGSRTDFTLTIDPVEADDAATYYCQQNNEDPMYTFGGGTKLEIK
notes: Murine monoclonal antibody; also called mAb 2; Antibody 2
EC50 [10]: 0.16 nM | EC50 [1]: 1.45 nM | EC50 [2]: 98.9 nM | Kd [3]: 6.21 nM

B6: murine anti-human monomer TTR antibody Ab3 (antibody, V domains shown)
VH: EVQLQQSGPVLVKPGASVKMSCKASGYTFTDYYMNWVKQSHGKSLEWIGVINPYNGGTSYNQKFKGKATLTVDKSSSTAYMELNSLTSEDSAVYYCARDLTGTGGAMDYWGQGTSVTVSS
VL: QIVLTQSPAILSASPGEKVTMTCRASSSVSYMHWYQQKPGSSPKPWIYATSNLASGVPARFSGSGSGTSYSLTISRVEAEDAATYYCQQWSSNPLTFGAGTKLELK
notes: Murine monoclonal antibody; entries are called Mouse Ab3 HC / LC but hold only the variable domains; also called mAb 3; Antibody 3
EC50 [1]: 14.1 nM | EC50 [2]: 128 nM | Kd [3]: 12.1 nM | binding result [12]: no binding (tested: about 20 µM TTR) | binding result [13]: no binding (tested: about 20 µM TTR)

Other lines, results leading:

EC50 [1]: 0.45 nM | EC50 [2]: ~12.7 nM | Kd [3]: 11.4 nM
B1: murine anti-human monomer TTR antibody Ab6 (antibody, V domains shown)
VH: QVQLQQSGAELMKPGASVKLSCKATGYTFTGYWIEWVKQRPGHGLEWIGEILPGSGSTNYNEKFKGKATFTADTSSNTAYMQLSSLTTEDSAIYYCARLRGSSYPWYFDYWGQGTTLTVSS
VL: DIQMTQSPASLSVSVGETVTITCRASENIYSNLAWYQQKQGKSPQLLVYAATNLADGVPSRFSGSGSGTQYSLKINSLQSEDFGSYYCQHFWGTPYTFGGGTKLEIK
notes: Murine monoclonal antibody; entries are called Mouse Ab6 HC / LC but hold only the variable domains; also called Antibody 6

EC50 [2]: ~43.2 nM | binding result [6]: no binding (tested: about 20 µM TTR) | binding result [7]: no binding (tested: about 20 µM TTR) | EC50 [8]: 4.22 nM
B3: murine anti-human monomer TTR antibody Ab7 (antibody, V domains shown)
VH: EVQLQQSGAELVKPGASVKLSCTASGFNIKDYYMHWVKQRTEQGLEWIGRIDPEDGETKYAPKFQGKATITADTSSNTAYLQLSSLTSEDTAVYYCARGKTPFAYWGQGTLVTVSA
VL: B2 VL with S56F, S67F, A92D, P96F, A100S, L106I
notes: Murine monoclonal antibody; entries are called Mouse Ab7 HC / LC but hold only the variable domains; also called Antibody 7
